Experimental data published in US20130019326.

Experiments:
[1] = tested on: FLAG-PPAR gamma, wild type
[2] = tested on: purified histone H1 (Millipore)
[3] = tested on: Rb protein (Cell Signaling Technology)

Substance	in vitro CDK kinase assay, phosphorylation of the substrate [1]	in vitro CDK kinase assay, phosphorylation of the substrate (FLAG-PPAR gamma S273A)	in vitro CDK kinase assay, phosphorylation of the substrate [2]	in vitro CDK5 kinase assay, phosphorylation of the substrate [3]
active cdk1/cdc2 kinase	Other members of the cdk protein family did not phosphorylate PPAR gamma			
active cdk2/cyclin A kinase	Other members of the cdk protein family did not phosphorylate PPAR gamma			
active cdk2/cyclin E kinase	Other members of the cdk protein family did not phosphorylate PPAR gamma			
active cdk4/cyclin D1 kinase	Other members of the cdk protein family did not phosphorylate PPAR gamma			
active cdk5/p35 kinase	The cdk5 site in murine PPAR gamma can be phosphorylated when incubated in vitro with cdk5 and its activating cofactor p35	Mutation of serine 273 to alanine completely blocks phosphorylation of PPAR gamma	PPAR gamma is phosphorylated as efficiently under these conditions as is histone H1, a known substrate of the cdk5/p35 complex	incubation with rosiglitazone does not inhibit the ability of cdk5 to phosphorylate the Rb protein
